Measured values published in US20070082364A1 (Takeda / Millennium, published 2007).

Tests used:
human GPR7 = target: T1, human GPR7 (human, UniProt P48145 1-328); experiment: cell-based or functional assay
T1 sequence: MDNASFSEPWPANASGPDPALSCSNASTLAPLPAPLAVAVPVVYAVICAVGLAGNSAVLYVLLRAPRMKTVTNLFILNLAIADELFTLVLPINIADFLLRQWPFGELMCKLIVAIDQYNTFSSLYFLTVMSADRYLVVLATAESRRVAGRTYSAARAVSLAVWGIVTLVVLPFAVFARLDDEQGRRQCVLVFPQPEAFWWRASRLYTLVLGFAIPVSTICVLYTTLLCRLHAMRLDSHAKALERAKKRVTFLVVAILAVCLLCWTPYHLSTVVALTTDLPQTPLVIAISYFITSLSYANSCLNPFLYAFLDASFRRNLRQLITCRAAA

human GPR8 = human GPR8 (human, UniProt P48146 1-333); experiment: cell-based or functional assay
Chain of human GPR8 (P48146 whole entry): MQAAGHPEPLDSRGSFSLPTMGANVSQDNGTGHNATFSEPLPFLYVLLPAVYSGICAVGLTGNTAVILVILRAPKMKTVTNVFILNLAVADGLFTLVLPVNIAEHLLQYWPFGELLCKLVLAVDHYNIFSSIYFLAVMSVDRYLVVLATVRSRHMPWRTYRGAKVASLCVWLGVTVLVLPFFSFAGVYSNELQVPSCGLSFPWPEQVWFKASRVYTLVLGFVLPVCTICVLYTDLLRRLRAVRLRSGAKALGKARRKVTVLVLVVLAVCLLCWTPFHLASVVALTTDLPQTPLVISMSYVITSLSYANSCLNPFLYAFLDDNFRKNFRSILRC

With WYKHVASPRYHTVGRAAGLLMGL [human neuropeptide W (1-23)] the “cAMP level in human GPR7-expressed cells, relative to FSK stimulation only” value (human GPR7) was 46% and the “cAMP level in human GPR8-expressed cells, relative to FSK stimulation only” value (human GPR8) was 31%.
